Reference: the supplement of paper PMC6757056
± gives the standard deviation of the averaged measurements.

B1: library; a variant is named by its letters at N, in order (parent)
chain: GCUGUCACCGAGAAACUGUGAAGUAUAUCUUAAACCUGGGCACUUAAAAGAUAUAUGGAGUUAGUAGUGCAACCUGCUCGGUCUGAUGAGUCCNNNNNNGGACGAAACAGC

Columns and labels:
cyclic di-GMP [1] = variants of: B1; test: FACS-Seq fitted mean relative fluorescence mCherry/BFP without ligand (log10 relative fluorescence); HEK293T; ligand: cyclic di-GMP (c-di-GMP-II aptamer); higher = higher reporter protein expression; conditions: ligand present: no
Summary of the method: (§1)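 HEK293T libraries were lentivirally transduced with an mCherry reporter carrying the ribozyme switch and an EF1α-BFP marker, enriched, and incubated for 48 h with or without ligand before sorting into 6 bins by mCherry/BFP. Genomic DNA from each bin was PCR-amplified, barcoded and sequenced on MiSeq. Fluorescence is the fitted normal mean of the bin counts. The fit used log10(mCherry/BFP), and means were scaled to five spiked-in control ribozymes.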

cyclic di-GMP [2] = variants of: B1; test: normalized RNA/DNA level without ligand (relative to sTRSVctl = 100) (log10 (% of sTRSVctl)); HEK293T; ligand: cyclic di-GMP (c-di-GMP-II aptamer); higher = less ribozyme self-cleavage, higher mRNA level; conditions: reporter: mCherry (pCS4076), ligand present: no
Summary of the method: (§2)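 Total RNA, extracted with EDTA 72 h after HEK293T cells were transfected with 4 µg per 6-well well of reporter-linked ribozyme switch library plasmids, was reverse-transcribed, amplified, barcoded and sequenced. Ligand, if used, was added 1 h before transfection. RNA level was derived from RNA reads divided by DNA reads and normalized to a spiked-in non-cleaving sequence or to the top sequences. This was multiplied by 100 and log10-transformed, with the top set of 25 sequences and a ≥100 DNA read minimum.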

cyclic di-GMP [3] = variants of: B1; test: FACS-Seq fitted mean relative fluorescence mCherry/BFP with ligand (log10 relative fluorescence); HEK293T; ligand: cyclic di-GMP (c-di-GMP-II aptamer); ligand concentration (+) FACS-Seq: 1 mM; higher = higher reporter protein expression; conditions: ligand present: yes
Summary of the method: as §1

cyclic di-GMP [4] = variants of: B1; test: normalized RNA/DNA level with ligand (relative to sTRSVctl = 100) (log10 (% of sTRSVctl)); HEK293T; ligand: cyclic di-GMP (c-di-GMP-II aptamer); ligand concentration (+) RNA-Seq: 1 mM; higher = less ribozyme self-cleavage, higher mRNA level; conditions: reporter: mCherry (pCS4076), ligand present: yes
Summary of the method: as §2

Variant	FACS-Seq fitted mean (log10) (cyclic di-GMP [1])	normalized RNA/DNA level without ligand (log10) (cyclic di-GMP [2])	FACS-Seq fitted mean (log10) (cyclic di-GMP [3])	normalized RNA/DNA level with ligand (log10) (cyclic di-GMP [4])
UAUUAA	-0.387 ± 0.054	1.7 ± 0.039	-0.126 ± 0.13	1.87 ± 0.12
UACCCU	-0.513 ± 0.0088	1.74 ± 0.024	-0.201 ± 0.055	1.87 ± 0.09
AGCUCG	-0.0835 ± 0.12	1.74 ± 0.095	0.217 ± 0.076	1.88 ± 0.039
AUUGAA	-0.159 ± 0.14	1.48 ± 0.079	0.152 ± 0.0043	1.66 ± 0.031
ACUAUA	-0.358 ± 0.029	1.53 ± 0.057	0.067 ± 0.087	1.72 ± 0.12
AGCGUG	-0.586 ± 0.017	1.6 ± 0.017	-0.279 ± 0.04	1.78 ± 0.14
UUAAAU	-0.418 ± 0.091	1.711 ± 0.0058	-0.275 ± 0.024	1.86 ± 0.11
GUAUCA	-0.201 ± 0.17	1.62 ± 0.02	0.0998 ± 0.097	1.78 ± 0.094
GCAUAC	-0.0759 ± 0.13	1.42 ± 0.19	0.23 ± 0.036	1.6 ± 0.072
CCACAU	0.0115 ± 0.077	1.54 ± 0.052	0.346 ± 0.031	1.76 ± 0.11
AUAUAG	-0.0556 ± 0.15	1.61 ± 0.046	0.255 ± 0.02	1.74 ± 0.074
CACGGA	-0.398 ± 0.042	1.48 ± 0.092	0.0123 ± 0.14	1.72 ± 0.06
CAGAUA	-0.713 ± 0.024	1.23 ± 0.053	-0.483 ± 0.0048	1.43 ± 0.065
AUGAAC	-0.0137 ± 0.15	1.649 ± 0.0059	0.334 ± 0.026	1.79 ± 0.1
CCGGCU	-0.0371 ± 0.0037	1.74 ± 0.033	0.118 ± 0.024	1.89 ± 0.077
CCCGAA	-0.464 ± 0.055	1.39 ± 0.023	-0.0882 ± 0.039	1.64 ± 0.13
CAGUAA	-0.526 ± 0.094	1.14 ± 0.14	-0.22 ± 0.0072	1.33 ± 0.073
ACGUAU	-0.637 ± 0.067	1.34 ± 0.1	-0.336 ± 0.0036	1.54 ± 0.036

Variant	FACS-Seq fitted mean (log10) (cyclic di-GMP [1])	normalized RNA/DNA level without ligand (log10) (cyclic di-GMP [2])	FACS-Seq fitted mean (log10) (cyclic di-GMP [3])	normalized RNA/DNA level with ligand (log10) (cyclic di-GMP [4])
AGCCUA	-0.0368 ± 0.15	1.62 ± 0.011	0.288 ± 0.026	1.8 ± 0.15
CACGCA	-0.406 ± 0.0063	1.61 ± 0.04	-0.00856 ± 0.11	1.79 ± 0.11
GCAUGU	-0.424 ± 0.036	1.49 ± 0.073	-0.147 ± 0.022	1.69 ± 0.072
CAGCCA	-0.196 ± 0.089	1.42 ± 0.05	0.0333 ± 0.08	1.67 ± 0.14
CAAGUU	-0.164 ± 0.058	1.71 ± 0.027	0.078 ± 0.065	1.86 ± 0.12
AGACAA	-0.193 ± 0.061	1.47 ± 0.057	0.171 ± 0.019	1.65 ± 0.1
GUACAA	-0.163 ± 0.036	1.5 ± 0.065	0.191 ± 0.07	1.68 ± 0.061
GCUUAA	-0.0927 ± 0.12	1.56 ± 0.088	0.338 ± 0.039	1.7 ± 0.072
CAUAGU	-0.641 ± 0.058	1.72 ± 0.025	-0.575 ± 0.046	1.85 ± 0.066
GCAAAC	-0.826 ± 0.056	1.39 ± 0.064	-0.0625 ± 0.35	1.57 ± 0.085
GUCGCU	-0.798 ± 0.048	1.683 ± 0.0047	-0.654 ± 0.068	1.87 ± 0.065
ACCUAA	-0.281 ± 0.029	1.57 ± 0.053	0.102 ± 0.075	1.76 ± 0.056
GUGAUC	-0.464 ± 0.047	1.15 ± 0.17	-0.114 ± 0.0038	1.27 ± 0.017
GCAAAG	-0.5587 ± 0.0035	1.41 ± 0.099	-0.278 ± 0.024	1.62 ± 0.087
GCCCCA	-0.109 ± 0.025	1.72 ± 0.024	0.138 ± 0.041	1.86 ± 0.085
GAAAAA	-0.369 ± 0.068	1.41 ± 0.1	-0.0537 ± 0.033	1.61 ± 0.12
CUGCGG	0.154 ± 0.06	1.82 ± 0.042	0.241 ± 0.03	1.84 ± 0.087
AGAAUG	-0.367 ± 0.045	1.48 ± 0.12	-0.126 ± 0.14	1.68 ± 0.043
